# Values quoted from earlier work as cited in publication PMC9902533.
# Biological target: Immunoglobulin E kappa (recombinant, clone AbD18705_hIgE, HCA190) (human) (UniProt P01854+P01834)
# Settings: 10 mM HEPES pH 7.4, 0.05% Tween-20, room temperature (IgE; fibrils and exosomes same buffer); FUS: 50 mM Tris-HCl pH 7.4, 25 mM KCl, 0.02% Tween-20, on-chip …
# Immunoglobulin E kappa (recombinant, clone AbD18705_hIgE, HCA190) (human), sequence (P01854 whole entry, chain 1 of 2, other chains not shown): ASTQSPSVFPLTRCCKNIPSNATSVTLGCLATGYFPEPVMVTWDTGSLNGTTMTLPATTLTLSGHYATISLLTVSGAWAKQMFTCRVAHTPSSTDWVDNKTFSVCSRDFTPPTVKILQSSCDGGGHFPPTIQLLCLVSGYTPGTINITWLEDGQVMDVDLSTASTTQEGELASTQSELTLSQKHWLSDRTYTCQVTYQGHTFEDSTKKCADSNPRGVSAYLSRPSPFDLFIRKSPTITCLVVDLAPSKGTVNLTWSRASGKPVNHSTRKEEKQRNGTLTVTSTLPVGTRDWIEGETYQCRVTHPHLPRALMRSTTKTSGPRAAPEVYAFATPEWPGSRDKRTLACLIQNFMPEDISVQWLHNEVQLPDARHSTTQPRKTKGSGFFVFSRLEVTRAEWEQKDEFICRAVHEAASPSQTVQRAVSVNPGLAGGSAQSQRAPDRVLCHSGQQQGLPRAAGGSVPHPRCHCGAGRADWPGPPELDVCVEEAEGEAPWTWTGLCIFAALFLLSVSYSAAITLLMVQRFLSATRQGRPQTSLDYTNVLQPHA
sequence,measurement,value
TGGGGCACGTTTATCCGTCCCTCCTAGTGGCGTGCCCC [IgE aptamer],Kd,0.05 µM
